Experimental data reported in PMC6340302 (ACS chemical biology, 2018).
Like-named read-outs stand apart in the source and are kept apart here. Values belong to the compound of their own block, whether it stands above or below them.

What was measured:
dbOphMA [1] = target: T1, dbOphMA (Dendrothele bispora, UniProt A0A4S8L4Q5); assay: microscale thermophoresis; assay type: binding
T1 sequence (A0A4S8L4Q5 1-377): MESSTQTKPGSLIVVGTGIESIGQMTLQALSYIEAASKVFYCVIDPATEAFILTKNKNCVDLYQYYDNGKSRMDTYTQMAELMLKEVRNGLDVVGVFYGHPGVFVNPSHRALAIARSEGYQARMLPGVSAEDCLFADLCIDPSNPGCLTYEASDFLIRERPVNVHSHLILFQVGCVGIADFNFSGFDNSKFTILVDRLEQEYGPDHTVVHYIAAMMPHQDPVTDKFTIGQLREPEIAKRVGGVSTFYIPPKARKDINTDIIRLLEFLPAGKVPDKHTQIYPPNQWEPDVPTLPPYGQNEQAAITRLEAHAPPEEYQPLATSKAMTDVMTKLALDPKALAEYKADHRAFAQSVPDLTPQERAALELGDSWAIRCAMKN

dbOphMA [2] = target: T1, dbOphMA; assay: microscale thermophoresis; assay type: binding; remark: listed apart in the source
[3] = target: dbOphM, the catalytic component of dbOphMA (Met1-Asn377), which lacks the precursor peptide (Dendrothele bispora CBS 962.96); assay: crystal structure
[4] = target: dbOphMA, methyltransferase-precursor fusion protein from Dendrothele bispora CBS 962.96, full-length fusion (residues Met1-Ala417) (Dendrothele bispora CBS 962.96)
[5] = target: dbOphMA, methyltransferase-precursor fusion protein from Dendrothele bispora CBS 962.96, full-length fusion (residues Met1-Ala417) (Dendrothele bispora CBS 962.96); assay: crystal structure

Compound: Nc1ncnc2c1ncn2[C@@H]1O[C@H](CSCC[C@H](N)C(=O)O)[C@@H](O)[C@H]1O [SAH, S-adenosyl homocysteine]
Kd (dbOphMA [1]): 6.88 µM

Compound: C[S@@+](CC[C@H](N)C(=O)O)C[C@H]1O[C@@H](n2cnc3c(N)ncnc32)[C@H](O)[C@@H]1O [SAM, S-adenosyl methionine]
Kd (dbOphMA [2]): 80.7 µM

stoichiometry N [3]: 2
Compound: dbOphM, the catalytic component of dbOphMA (Met1-Asn377), which lacks the precursor peptide (domain or fragment)

stoichiometry N [4]: 2
stoichiometry N [5]: 2
Compound: dbOphMA, methyltransferase-precursor fusion protein from Dendrothele bispora CBS 962.96, full-length fusion (residues Met1-Ala417) (enzyme)
